From the supplement of paper PMC9170038

Tested on: MS2 coat protein
Test: apparent KD of MS2 coat protein; designed switch direction (-1 OFF switch, 1 ON switch): -1; higher = weaker reporter binding
Outline: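 Three titration conditions were used: no input, 200 uM small-molecule ligand, and an oligonucleotide input. In each, SNAP-549-labelled MS2 coat protein was raised from 0.7 or 1.5 nM, doubling, to 3 µM over designed RNA switches transcribed on Illumina chips by stalled E. coli RNA polymerase. Curve fits of normalised cluster fluorescence gave values whose per-design median over clusters is the apparent KD.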

[1] = input ligand: microRNA oligo, concentration not stated
[2] = Eterna round: R95, input ligand: FMN 200 uM
[3] = Eterna round: R95, input ligand: microRNA oligo, concentration not stated
[4] = Eterna round: R95, input ligand: none

Sequence | apparent KD of MS2 coat protein (input ligand: FMN 200 uM) [nM] | apparent KD of MS2 coat protein [1] [nM] | apparent KD of MS2 coat protein (input ligand: none) [nM] | also measured
UGAGUGCUGCGAGGAUAUACAUGAGGAUCACCCAUGUAAACCUGUGAGGCUUUGCCUCACAGGAUGUAGAAGGCGCAGUACUCU [JL ENG2 1.16] (Eterna round: R96, puzzle: Exclusion NG 2) | 15.5 | 9.94 | 13.2 | –
CGGUGUAACAGAGGAUAUGAGCGCAACUGACGAUCAGAAGGCUGACAUGAGGAUCACCCAUGUGAUUUCUCAAUAUUAUACAUC [Prohibition 89 - Jieux - Exclusion NG 1] (Eterna round: R96, puzzle: Exclusion NG 1) | 34.2 | 324 | 153 | –
AGCUGUGGCCGAGGAUAUCUAAUAAUCCCAACCGAAAUAUAAUCGGACAUGAGGAUCACCCAUGUAGAGAAGGCGGUCUCAGCA [Eli eng2 - 066] (Eterna round: R96, puzzle: Exclusion NG 2) | – | 96.6 | – | –
UUUAAUCGUGACAUGGGUGACAUGAGGAUCACCCAUGUCACAAGCUUCUUGCUCGUCUUAUAAUUAACCCAUGUCAC [LRO Sensor-off var1-12 mod of Stov1-13-A1 by Brourd] (Eterna round: R97, puzzle: Sensor, turn-off variant 1) | 18.8 | – | 18.3 | –
GCAAGCAGCUUGGAAUGAGACAUGAGGAUCACCCAUGUUCAGCACAAAGCCUUCAAUCAUCAGCUCGAAAGUAAAUG [Eternabot (L2) Solution 16] (Eterna round: R97, puzzle: Sensor, turn-off variant 1) | 14.7 | – | 16.3 | –
UAUAAGGUAGGAUAUACGAAUAAAUAGGGUAGAAUAAUAACACAUGAGGAUCACCCAUGUAGAAGGACCAAUAG [Mat - Exclusion 2 - Mod of my Tesla design - D27] (puzzle: Exclusion 2) | – | – | – | apparent KD of MS2 coat protein [2]: 58.9 nM; apparent KD of MS2 coat protein [3]: 21 nM; apparent KD of MS2 coat protein [4]: 17.2 nM
UAAAAGUCAGGAUAUACAUGAGGAUCACCCAUGUAAAAUUUUAAUUUAAUUUUAAGGUGUAGAAGGGACAAUUU [Ex3 #1] (Eterna round: R97, puzzle: Exclusion 3) | 32.5 | – | 34.9 | –
GCCUGUGCCCUAGGAUAUCGCCCAGCCAAUGGAUGAGAAGGAGGCGGGUGAAACAUGAGGAUCACCCAUGUAAACGCACAAGCA [Inusri] (Eterna round: R96, puzzle: Exclusion NG 1) | 102 | 14.5 | 22.7 | –
UAUGUGUCAGGAUAUCGAUUAGAACAGAAUUUAACAAUAGUCGAGAAGGGACAUGAGGAUCACCCAUGUUCAUC [JR_Ex4_Sub022] (Eterna round: R97, puzzle: Exclusion 4) | 26.4 | – | 18.9 | –
CACGUGAUUGGGCUCAUUAACAUGAGGAUCACCCAUGUGUGUGUUUUAGGAUGCCCACAAGCUUUUUCGCCGUCUAG [Eternabot (L1) Solution 3] (Eterna round: R97, puzzle: Sensor, turn-off variant 1) | 51 | – | 64.8 | –
ACGCGACAUGAGGAUCACCCAUGUGAGGAUAUGGCCUGUUUGUCGUGUGCUGGCUCUGUCAGAAGGCGCGUGGG [salish99_ex1_r4_041] (Eterna round: R97, puzzle: Exclusion 1) | 612 | – | 683 | –
UUUUAACAUGAGGAUCACCCAUGUGAGGAUAUCGAAAUUUAUAUUUAUAUUAAUUAAUCGAGAAGGCACAUUUU [JMF 84] (puzzle: Exclusion 1) | – | – | – | apparent KD of MS2 coat protein [3]: 150 nM
AGCCCUUGUGUCAGGAUAUGCAUCCUUAAUGGACGGCAGAAGGGACAUGAGGAUCACCCAUGUAAAUAGAAAAU [Sodixeti] (puzzle: Brourd's mod of Exclusion 4) | – | – | – | apparent KD of MS2 coat protein [2]: 30.1 nM; apparent KD of MS2 coat protein [3]: 111 nM; apparent KD of MS2 coat protein [4]: 177 nM
UAUAUAUAGUAAGGAUAUGUAUAUAUUUUACAAACAGAAGGUACUGACAUGAGGAUCACCCAUGUUUUAGUGUGGGCAUGUAGA [JMF's solution 68] (Eterna round: R96, puzzle: Exclusion NG 1) | – | 43.3 | – | –
GGUGCGUAUGUGAGGAUAUGCUGGUCCUUGGAUCAGCAGAAGGCACAUGAGGAUCACCCAUGUGGUGUCGUACC [JL bmx4 3.46] (puzzle: Brourd's mod of Exclusion 4) | – | – | – | apparent KD of MS2 coat protein [3]: 149 nM
AUUUAAUUUAGCGAGAUCACAUGAGGAUCACCCAUGUAUAUAUAGGAUAUCAGCUCGUUUAGAGCUGAGAAGGAUAUAUACCGC [ExNG3/7-A2] (Eterna round: R96, puzzle: Exclusion NG 3) | – | 74 | – | –
GGUCUACAUGAGGAUCACCCAUGUAAGGAUAUCGUCACUGGAGCUGCGGCUCCAGUGACGAGAAGGUACGUAAU [E1/12-A3] (Eterna round: R97, puzzle: Exclusion 1) | 33.7 | – | 32.4 | –
